Assay [1] has as its target human ρ1 GABAC receptor (human) (UniProt P24046). Nature of the assay: flow cytometry on SHp5-ρ1 cells, antibody at 1/1,000 dilution.
Assay [2] shares this target. Briefly: flow cytometry on SHp5-ρ1 cells, antibody at 1/25 or 1/50 dilution.

Sequence of UniProt P24046 (P24046 22-479): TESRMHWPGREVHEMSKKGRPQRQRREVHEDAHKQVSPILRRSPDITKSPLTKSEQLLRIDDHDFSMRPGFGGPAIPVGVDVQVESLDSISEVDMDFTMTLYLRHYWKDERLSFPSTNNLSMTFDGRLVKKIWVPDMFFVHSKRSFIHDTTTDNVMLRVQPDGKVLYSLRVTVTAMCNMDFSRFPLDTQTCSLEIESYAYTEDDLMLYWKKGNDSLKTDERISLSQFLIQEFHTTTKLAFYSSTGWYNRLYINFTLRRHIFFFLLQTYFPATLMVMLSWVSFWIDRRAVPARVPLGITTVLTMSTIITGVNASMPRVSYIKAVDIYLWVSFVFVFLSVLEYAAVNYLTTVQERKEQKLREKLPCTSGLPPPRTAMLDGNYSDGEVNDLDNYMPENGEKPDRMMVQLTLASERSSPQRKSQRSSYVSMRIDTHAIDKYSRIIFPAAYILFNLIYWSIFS

Regarding “affinity-purified GABAC Ab N-14 (antibody)”, the percent positive cells in assay [1] came to 47%; in assay [2], 63%.

The values are drawn from patent US20090269786A1.
